Assay results published in patent US20250043028A1 (Hoffmann-La Roche, published 2025).

Key:
[1] = biological target: T1, human MCSP expressed on tumor cells (Colo-38, WM266-4, MV-3) (human, UniProt Q6UVK1 30-2322); assay: cell-based or functional assay
[2] = biological target: T1, human MCSP expressed on tumor cells …; assay: cell-based or functional assay; remark: listed apart in the source
[3] = biological target: T2, human CD3 expressed on Jurkat cells (human, UniProt P07766 23-207); assay: flow cytometry on Jurkat cells
T2 construct: CD3 as part of the T cell receptor complex on Jurkat cells; also called huCD3; human CD3 on cells
T2 sequence (P07766 23-207 limits assumed): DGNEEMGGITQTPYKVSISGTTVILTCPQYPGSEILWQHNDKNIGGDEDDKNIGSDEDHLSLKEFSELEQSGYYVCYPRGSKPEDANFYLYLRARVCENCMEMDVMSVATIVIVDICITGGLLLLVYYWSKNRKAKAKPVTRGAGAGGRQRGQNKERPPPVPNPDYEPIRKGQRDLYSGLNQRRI

[4] = biological target: T1, human MCSP expressed on tumor cells …; assay: flow cytometry on WM266-4 cells
[5] = biological target: T3, human CEA expressed on tumor cells (LS-174T, MKN-45, MC38-huCEA) (human, UniProt P06731 35-685); assay: cell-based or functional assay
T3 sequence (looked up): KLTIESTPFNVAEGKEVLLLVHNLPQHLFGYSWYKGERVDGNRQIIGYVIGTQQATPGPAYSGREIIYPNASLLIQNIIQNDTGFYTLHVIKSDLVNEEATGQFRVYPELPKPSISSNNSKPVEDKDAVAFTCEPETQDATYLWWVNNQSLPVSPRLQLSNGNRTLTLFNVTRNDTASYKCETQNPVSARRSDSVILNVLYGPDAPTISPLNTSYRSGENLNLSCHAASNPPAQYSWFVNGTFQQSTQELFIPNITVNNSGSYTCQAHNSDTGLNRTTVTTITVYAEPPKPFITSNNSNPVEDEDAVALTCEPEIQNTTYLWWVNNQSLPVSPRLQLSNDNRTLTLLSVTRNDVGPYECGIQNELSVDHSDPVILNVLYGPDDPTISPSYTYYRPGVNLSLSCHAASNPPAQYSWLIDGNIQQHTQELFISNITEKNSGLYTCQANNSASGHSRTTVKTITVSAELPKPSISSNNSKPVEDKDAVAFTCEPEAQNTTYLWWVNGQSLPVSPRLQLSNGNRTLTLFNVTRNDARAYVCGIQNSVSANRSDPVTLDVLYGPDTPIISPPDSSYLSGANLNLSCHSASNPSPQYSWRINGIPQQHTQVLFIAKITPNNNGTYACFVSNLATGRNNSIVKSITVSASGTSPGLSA

[6] = biological target: T2, human CD3 expressed on Jurkat cells; assay: flow cytometry on Jurkat cells; VL/VH exchange; CD3 on Jurkat cells
Protocol: (§1) Binding of the different bispecific constructs to CD3 on Jurkat cells (ATCC #TIB-152), and the respective tumor antigen on target cells, was determined by FACS. Briefly, cells were harvested, counted and checked for viability. 0.15-0.2 million cells per well (in PBS containing 0.1% BSA; 90 μl) were plated in a round-bottom 96-well plate and incubated with the indicated concentration of the bispecific constructs and corresponding IgG controls (10 μl) for 30 min at 4° C. For a better comparison, all constructs and IgG controls were normalized to same molarity. […] Bound constructs were detected using a FACSCantoII (Software FACS Diva). The “(scFv)₂” molecule was detected using a FITC-conjugated anti-His antibody (Lucerna, #RHIS-45F-Z). […] Unless otherwise indicated, cells were fixed with 100 μl/well fixation buffer (BD #554655) for 15 min at 4° C. in the dark, centrifuged for 6 min at 400×g and kept in 200 μl/well PBS containing 0.1% BSA until the samples were measured with FACS CantoII. EC50 values were calculated using the GraphPad Prism software.
(§2) As a control, the equivalent maximum concentration of the corresponding IgGs and the background staining due to the labeled 2ndary antibody (goat anti-human FITC-conjugated AffiniPure F(ab′)₂ Fragment, Fcγ Fragment-specific, Jackson Immuno Research Lab #109-096-098) were assessed as well.

[7] = biological target: T3, human CEA expressed on tumor cells …; assay: flow cytometry on LS-174T cells; VL/VH exchange; CEA on LS-174T cells
Protocol: as §1, §2

[8] = biological target: T1, human MCSP expressed on tumor cells …; assay: FACS on Colo-38 cells, dose titration
Protocol: as §1
In another experiment, the purified “2+1 IgG scFab” bispecific construct (SEQ ID NOs 5, 17, 19) and the corresponding anti human MCSP IgG were analyzed by flow cytometry for dose-dependent binding to human MCSP on Colo-38 human melanoma cells, to determine whether the bispecific construct binds to MCSP via one or both of its “arms”.

HuFcγRIIIa-V158-K6H6 = biological target: T4, HuFcγRIIIa-V158-K6H6 (human, UniProt P08637 17-208); assay: SPR Biacore T100, 25 °C, kinetic fit, one concentration (1000 nM); receptor captured via anti-Penta His
T4 construct: Captured on an anti-Penta His antibody on a CM5 chip; also called human FcγRIIIa-V158; human FcγRIIIa; not shown: K6H6 tag
T4 sequence (P08637 17-208 F176V): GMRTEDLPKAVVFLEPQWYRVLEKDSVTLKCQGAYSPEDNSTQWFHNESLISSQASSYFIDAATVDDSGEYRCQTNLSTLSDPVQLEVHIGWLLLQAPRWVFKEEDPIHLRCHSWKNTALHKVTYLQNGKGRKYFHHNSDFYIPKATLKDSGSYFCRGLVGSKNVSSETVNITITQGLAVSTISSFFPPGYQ
Protocol: For analyzing interaction of different Fc-variants with human FcγRIIIa-V158 and murine FcγRIV direct coupling of around 6,500 resonance units (RU) of the anti-Penta His antibody (Qiagen) is performed on a CM5 chip at pH 5.0 using the standard amine coupling kit (Biacore, Freiburg/Germany). HuFcγRIIIa-V158-K6H6 and muFcγRIV-aviHis-biotin are captured for 60 s at 4 and 10 nM respectively.
Constructs with different Fc-mutations are passed through the flow cells for 120 s at a concentration of 1000 nM with a flow rate of 30 μl/min. The dissociation is monitored for 220 s. Bulk refractive index differences are corrected for by subtracting the response obtained in a reference flow cell. Here, the Fc-variants are flown over a surface with immobilized anti-Penta His antibody but on which HBS-EP has been injected rather than HuFcγRIIIa-V158-K6H6 or muFcγRIV-aviHis-biotin. Affinity for human FcγRIIIa-V158 and murine FcγRIV was determined for wild-type Fc using a concentration range from 500-4000 nM.
The steady state response was used to derive the dissociation constant KD by non-linear curve fitting of the Langmuir binding isotherm. Kinetic constants were derived using the Biacore T100 Evaluation Software (vAA, Biacore AB, Uppsala/Sweden), to fit rate equations for 1:1 Langmuir binding by numerical integration.

T1 sequence (Q6UVK1 30-2322): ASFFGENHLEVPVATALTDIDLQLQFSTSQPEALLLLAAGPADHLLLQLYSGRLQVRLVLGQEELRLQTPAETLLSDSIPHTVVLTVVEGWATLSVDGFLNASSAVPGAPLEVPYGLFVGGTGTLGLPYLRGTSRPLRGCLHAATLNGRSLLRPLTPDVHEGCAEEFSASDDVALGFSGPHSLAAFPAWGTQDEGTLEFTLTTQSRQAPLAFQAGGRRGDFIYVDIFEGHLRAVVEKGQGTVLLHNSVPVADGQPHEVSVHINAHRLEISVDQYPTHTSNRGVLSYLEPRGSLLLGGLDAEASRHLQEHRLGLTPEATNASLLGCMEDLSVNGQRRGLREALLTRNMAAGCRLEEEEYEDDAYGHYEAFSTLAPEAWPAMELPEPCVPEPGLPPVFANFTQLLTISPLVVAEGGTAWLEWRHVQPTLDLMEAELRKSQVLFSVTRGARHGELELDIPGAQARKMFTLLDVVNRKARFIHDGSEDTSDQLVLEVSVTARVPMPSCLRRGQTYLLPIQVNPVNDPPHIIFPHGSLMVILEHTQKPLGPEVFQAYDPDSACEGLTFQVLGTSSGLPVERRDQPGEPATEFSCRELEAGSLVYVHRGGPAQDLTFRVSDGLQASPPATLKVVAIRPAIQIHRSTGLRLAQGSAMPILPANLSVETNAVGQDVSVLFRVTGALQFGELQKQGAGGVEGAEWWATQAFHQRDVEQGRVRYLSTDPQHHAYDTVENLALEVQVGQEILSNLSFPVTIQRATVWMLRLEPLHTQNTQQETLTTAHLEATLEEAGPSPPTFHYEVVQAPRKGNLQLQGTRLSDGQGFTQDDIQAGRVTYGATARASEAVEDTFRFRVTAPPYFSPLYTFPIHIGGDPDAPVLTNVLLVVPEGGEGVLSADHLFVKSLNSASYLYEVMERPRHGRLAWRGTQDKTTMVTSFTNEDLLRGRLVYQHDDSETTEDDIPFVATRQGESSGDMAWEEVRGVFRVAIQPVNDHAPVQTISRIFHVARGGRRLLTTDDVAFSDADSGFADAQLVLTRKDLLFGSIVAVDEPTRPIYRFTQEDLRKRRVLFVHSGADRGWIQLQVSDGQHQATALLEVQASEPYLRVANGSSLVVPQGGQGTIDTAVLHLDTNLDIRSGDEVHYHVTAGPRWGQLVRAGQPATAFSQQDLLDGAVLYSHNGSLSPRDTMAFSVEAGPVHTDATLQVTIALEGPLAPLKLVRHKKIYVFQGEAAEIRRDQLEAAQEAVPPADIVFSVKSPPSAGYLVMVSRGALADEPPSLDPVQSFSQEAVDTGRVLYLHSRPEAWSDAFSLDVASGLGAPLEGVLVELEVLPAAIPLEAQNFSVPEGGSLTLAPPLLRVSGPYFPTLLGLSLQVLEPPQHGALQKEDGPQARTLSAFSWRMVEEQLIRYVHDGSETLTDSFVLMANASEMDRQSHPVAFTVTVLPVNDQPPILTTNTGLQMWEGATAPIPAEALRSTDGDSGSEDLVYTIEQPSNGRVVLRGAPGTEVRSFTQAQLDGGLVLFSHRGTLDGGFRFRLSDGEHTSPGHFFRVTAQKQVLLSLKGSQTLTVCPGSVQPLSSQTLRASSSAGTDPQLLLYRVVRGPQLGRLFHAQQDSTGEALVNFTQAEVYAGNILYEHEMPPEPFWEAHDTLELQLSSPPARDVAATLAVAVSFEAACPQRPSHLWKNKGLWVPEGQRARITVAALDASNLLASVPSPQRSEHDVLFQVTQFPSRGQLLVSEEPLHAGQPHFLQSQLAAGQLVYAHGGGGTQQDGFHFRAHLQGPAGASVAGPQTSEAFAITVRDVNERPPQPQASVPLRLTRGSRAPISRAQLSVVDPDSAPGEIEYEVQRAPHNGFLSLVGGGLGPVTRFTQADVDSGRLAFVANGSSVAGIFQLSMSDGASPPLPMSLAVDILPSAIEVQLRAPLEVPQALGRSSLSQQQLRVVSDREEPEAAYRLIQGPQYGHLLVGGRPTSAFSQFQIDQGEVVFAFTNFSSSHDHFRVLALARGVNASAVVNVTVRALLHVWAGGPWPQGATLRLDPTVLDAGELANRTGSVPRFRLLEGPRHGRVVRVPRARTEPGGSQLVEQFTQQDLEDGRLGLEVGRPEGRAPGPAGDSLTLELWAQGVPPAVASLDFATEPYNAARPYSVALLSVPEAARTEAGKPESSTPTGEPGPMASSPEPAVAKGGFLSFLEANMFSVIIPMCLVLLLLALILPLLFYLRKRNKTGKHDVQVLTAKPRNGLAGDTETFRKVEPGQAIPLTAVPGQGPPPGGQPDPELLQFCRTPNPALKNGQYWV

B1: “2+1 IgG Crossfab”; VH/VL exchange (LC007/V9) (anti-MCSP/anti-huCD3) (bispecific antibody)
chain 1: not shown
chain 2: DIVLTQSPSSLSASLGDRVTISCSASQGIRNYLNWYQQRPDGTVKLLIYYTSSLHSGVPSRFSGSGSGTDYSLTISNLEPEDIATYYCQQYSKLPWTFGGGTKLEIKRTVAAPSVFIFPPSDEQLKSGTASVVCLLNNFYPREAKVQWKVDNALQSGNSQESVTEQDSKDSTYSLSSTLTLSKADYEKHKVYACEVTHQGLSSPVTKSFNRGEC
chain 3: DIQMTQSPSSLSASVGDRVTITCRASQDIRNYLNWYQQKPGKAPKLLIYYTSRLESGVPSRFSGSGSGTDYTLTISSLQPEDFATYYCQQGNTLPWTFGQGTKVEIKSSASTKGPSVFPLAPSSKSTSGGTAALGCLVKDYFPEPVTVSWNSGALTSGVHTFPAVLQSSGLYSLSSVVTVPSSSLGTQTYICNVNHKPSNTKVDKKVEPKSCGGGGSGGGGSEVQLQESGPGLVKPSQSLSLTCSVTGYSITSGYYWNWIRQFPGNKLEWMGYITYDGSNNYNPSLKNRISITRDTSKNQFFLKLNSVTTEDTATYYCADFDYWGQGTTLTVSSASTKGPSVFPLAPSSKSTSGGTAALGCLVKDYFPEPVTVSWNSGALTSGVHTFPAVLQSSGLYSLSSVVTVPSSSLGTQTYICNVNHKPSNTKVDKKVEPKSCDKTHTCPPCPAPEAAGGPSVFLFPPKPKDTLMISRTPEVTCVVVDVSHEDPEVKFNWYVDGVEVHNAKTKPREEQYNSTYRVVSVLTVLHQDWLNGKEYKCKVSNKALGAPIEKTISKAKGQPREPQVCTLPPSRDELTKNQVSLSCAVKGFYPSDIAVEWESNGQPENNYKTTPPVLDSDGSFFLVSKLTVDKSRWQQGNVFSCSVMHEALHNHYTQKSLSLSPGK
chain 4: EVQLVESGGGLVQPGGSLRLSCAASGYSFTGYTMNWVRQAPGKGLEWVALINPYKGVSTYNQKFKDRFTISVDKSKNTAYLQMNSLRAEDTAVYYCARSGYYGDSDWYFDVWGQGTLVTVSSASVAAPSVFIFPPSDEQLKSGTASVVCLLNNFYPREAKVQWKVDNALQSGNSQESVTEQDSKDSTYSLSSTLTLSKADYEKHKVYACEVTHQGLSSPVTKSFNRGEC
notes: vectors transfected 1:2:1:1 (second heavy chain : light chain : first heavy chain-heavy chain Crossfab : light chain Crossfab); also called 2+1 IgG Crossfab (V9)
- EC50 of killing (LDH release) of MV-3 cells, human PBMCs, E:T 10:1, 21 h [1]: 0.0092 nM
- EC50 of killing (LDH release) of WM266-4 cells, human PBMCs, E:T 10:1, 21 h [1]: 0.0331 nM
- EC50 [pM] of T cell-mediated killing (LDH release) of MV-3 cells, human PBMCs, E:T 10:1, about 24 h [2]: 10 pM
- EC50 [pM] of T cell-mediated killing (LDH release) of WM266-4 cells, human PBMCs, E:T 10:1, about 24 h [2]: 12.4 pM
- EC50 [3]: 1.66 nM
- EC50 [4]: 0.95 nM

B2: “2+1 IgG Crossfab, inverted”; VL/VH exchange (CH1A1A/V9) (anti-CEA/anti-huCD3) (bispecific antibody)
chain 1: B1 chain 4
chain 2: not shown
chain 3: QVQLVQSGAEVKKPGASVKVSCKASGYTFTEFGMNWVRQAPGQGLEWMGWINTKTGEATYVEEFKGRVTFTTDTSTSTAYMELRSLRSDDTAVYYCARWDFAYYVEAMDYWGQGTTVTVSSASTKGPSVFPLAPSSKSTSGGTAALGCLVKDYFPEPVTVSWNSGALTSGVHTFPAVLQSSGLYSLSSVVTVPSSSLGTQTYICNVNHKPSNTKVDKKVEPKSCDKTHTCPPCPAPEAAGGPSVFLFPPKPKDTLMISRTPEVTCVVVDVSHEDPEVKFNWYVDGVEVHNAKTKPREEQYNSTYRVVSVLTVLHQDWLNGKEYKCKVSNKALGAPIEKTISKAKGQPREPQVCTLPPSRDELTKNQVSLSCAVKGFYPSDIAVEWESNGQPENNYKTTPPVLDSDGSFFLVSKLTVDKSRWQQGNVFSCSVMHEALHNHYTQKSLSLSPGK
chain 4: DIQMTQSPSSLSASVGDRVTITCKASAAVGTYVAWYQQKPGKAPKLLIYSASYRKRGVPSRFSGSGSGTDFTLTISSLQPEDFATYYCHQYYTYPLFTFGQGTKLEIKRTVAAPSVFIFPPSDEQLKSGTASVVCLLNNFYPREAKVQWKVDNALQSGNSQESVTEQDSKDSTYSLSSTLTLSKADYEKHKVYACEVTHQGLSSPVTKSFNRGEC
notes: also called VL/VH-exchange construct
- EC50 of killing (LDH release) of LS-174T cells, human PBMCs, E:T 10:1, 28 h [5]: 0.955 nM
- EC50 of killing (LDH release) of MKN-45 cells, human PBMCs, E:T 10:1, 28 h [5]: 0.243 nM
- EC50 [6]: 4.6 nM
- EC50 [7]: 9.3 nM

B3: “2+1 IgG scFab, LALA” (anti-MCSP/anti-huCD3) (bispecific antibody)
chain 1: B1 chain 2
chain 2: not shown
chain 3: EVQLQESGPGLVKPSQSLSLTCSVTGYSITSGYYWNWIRQFPGNKLEWMGYITYDGSNNYNPSLKNRISITRDTSKNQFFLKLNSVTTEDTATYYCADFDYWGQGTTLTVSSASTKGPSVFPLAPSSKSTSGGTAALGCLVKDYFPEPVTVSWNSGALTSGVHTFPAVLQSSGLYSLSSVVTVPSSSLGTQTYICNVNHKPSNTKVDKKVEPKSCDKTHTCPPCPAPEAAGGPSVFLFPPKPKDTLMISRTPEVTCVVVDVSHEDPEVKFNWYVDGVEVHNAKTKPREEQYNSTYRVVSVLTVLHQDWLNGKEYKCKVSNKALPAPIEKTISKAKGQPREPQVCTLPPSRDELTKNQVSLSCAVKGFYPSDIAVEWESNGQPENNYKTTPPVLDSDGSFFLVSKLTVDKSRWQQGNVFSCSVMHEALHNHYTQKSLSLSPGK
notes: also called Fc-LALA; copies: 2 + 1 + 1
- EC50 (read off the curve) [8]: ~0.06 nM
- Kd (HuFcγRIIIa-V158-K6H6): 2130 nM
